These results are taken from US20240076396A1 (Regeneron, published 2024).

T1: hGITR.mFc (dimeric recombinant human GITR ectodomain protein, mouse Fc fusion) (human)
T1 construct: also called dimeric human GITR; dimeric GITR
T1 chain: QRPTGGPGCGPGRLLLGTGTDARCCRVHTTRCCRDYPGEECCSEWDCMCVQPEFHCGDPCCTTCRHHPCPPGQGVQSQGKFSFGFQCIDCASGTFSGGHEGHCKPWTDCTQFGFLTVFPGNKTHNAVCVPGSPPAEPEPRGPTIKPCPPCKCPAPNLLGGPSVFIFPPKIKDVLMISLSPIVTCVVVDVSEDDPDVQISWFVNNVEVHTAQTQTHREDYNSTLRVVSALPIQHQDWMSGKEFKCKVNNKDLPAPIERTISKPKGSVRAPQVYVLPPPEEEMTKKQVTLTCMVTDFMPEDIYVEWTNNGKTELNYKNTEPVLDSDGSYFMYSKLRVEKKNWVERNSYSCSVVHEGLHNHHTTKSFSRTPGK

T2: hGITR.mmH (soluble monomeric recombinant human GITR ectodomain protein) (human)
T2 construct: also called monomeric human GITR
T2 chain: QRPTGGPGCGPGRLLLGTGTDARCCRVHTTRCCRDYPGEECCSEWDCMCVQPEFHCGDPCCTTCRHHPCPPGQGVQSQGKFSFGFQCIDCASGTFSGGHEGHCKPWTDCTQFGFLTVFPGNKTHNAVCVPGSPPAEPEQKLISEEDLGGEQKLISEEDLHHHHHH

B1: CompAb1 heavy chain variant N101I (antibody, human IgG1, V domains shown)
VH: QVQLQESGPGLVKPSETLSLTCIVSGGSISGYFWNWIRQPPGKGLEWIGYIYYSGTTIYNPSLKSRFTISLDTSKNQFSLKLTSVTAADTAVYYCARESYIPSPRYFDHWGQGTLVTVSS
VL: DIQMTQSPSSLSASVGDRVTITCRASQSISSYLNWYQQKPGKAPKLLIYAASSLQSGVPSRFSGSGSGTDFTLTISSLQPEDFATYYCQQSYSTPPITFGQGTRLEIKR
notes: human IgG1 constant region; tested as CHOt supernatant; also called Sample Number 8
B2: CompAb1 heavy chain variant S103H (antibody, human IgG1, V domains shown)
VH: B1 VH with I101N, S103H
VL: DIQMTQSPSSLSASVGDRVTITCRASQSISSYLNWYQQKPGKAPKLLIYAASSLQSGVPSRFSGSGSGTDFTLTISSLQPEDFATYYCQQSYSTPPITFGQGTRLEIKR
notes: human IgG1 constant region; tested as CHOt supernatant; also called Sample Number 25
B3: CompAb1 heavy chain variant S103M (antibody, human IgG1, V domains shown)
VH: B1 VH with I101N, S103M
VL: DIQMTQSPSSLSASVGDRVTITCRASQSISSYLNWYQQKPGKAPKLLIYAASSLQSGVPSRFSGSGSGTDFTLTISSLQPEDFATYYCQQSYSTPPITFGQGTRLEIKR
notes: human IgG1 constant region; tested as CHOt supernatant; also called Sample Number 29
B4: CompAb1 heavy chain variant S103A (antibody, human IgG1, V domains shown)
VH: B1 VH with I101N, S103A
VL: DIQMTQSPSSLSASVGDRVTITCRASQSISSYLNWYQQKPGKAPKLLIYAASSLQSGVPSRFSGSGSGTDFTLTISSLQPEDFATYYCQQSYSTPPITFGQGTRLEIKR
notes: human IgG1 constant region; tested as CHOt supernatant; also called Sample Number 20
B5: CompAb1 heavy chain variant N101K (antibody, human IgG1, V domains shown)
VH: B1 VH with I101K
VL: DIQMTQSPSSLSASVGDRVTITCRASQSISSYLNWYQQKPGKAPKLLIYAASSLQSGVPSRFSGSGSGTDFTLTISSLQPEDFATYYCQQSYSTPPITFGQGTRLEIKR
notes: human IgG1 constant region; tested as CHOt supernatant; also called Sample Number 9
B6: CompAb1 heavy chain variant S103V (antibody, human IgG1, V domains shown)
VH: B1 VH with I101N, S103V
VL: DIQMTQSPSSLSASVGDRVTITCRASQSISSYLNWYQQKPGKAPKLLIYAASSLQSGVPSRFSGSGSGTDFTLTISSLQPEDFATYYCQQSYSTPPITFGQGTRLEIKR
notes: human IgG1 constant region; tested as CHOt supernatant; also called Sample Number 35
B7: CompAb1 heavy chain variant S103D (antibody, human IgG1, V domains shown)
VH: B1 VH with I101N, S103D
VL: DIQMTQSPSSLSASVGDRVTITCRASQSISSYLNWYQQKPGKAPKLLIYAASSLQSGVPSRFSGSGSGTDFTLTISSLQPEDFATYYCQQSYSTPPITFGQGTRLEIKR
notes: human IgG1 constant region; tested as CHOt supernatant; also called Sample Number 21
B8: CompAb1 heavy chain variant S103I (antibody, human IgG1, V domains shown)
VH: B1 VH with I101N, S103I
VL: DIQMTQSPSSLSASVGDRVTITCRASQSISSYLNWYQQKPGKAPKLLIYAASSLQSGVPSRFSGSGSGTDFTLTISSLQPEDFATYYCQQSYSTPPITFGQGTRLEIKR
notes: human IgG1 constant region; tested as CHOt supernatant; also called Sample Number 26
B9: CompAb1 heavy chain variant S103Q (antibody, human IgG1, V domains shown)
VH: B1 VH with I101N, S103Q
VL: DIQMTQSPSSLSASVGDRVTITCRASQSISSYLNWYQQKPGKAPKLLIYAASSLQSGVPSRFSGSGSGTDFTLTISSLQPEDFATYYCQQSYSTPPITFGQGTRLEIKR
notes: human IgG1 constant region; tested as CHOt supernatant; also called Sample Number 32
B10: CompAb1 heavy chain variant S103F (antibody, human IgG1, V domains shown)
VH: B1 VH with I101N, S103F
VL: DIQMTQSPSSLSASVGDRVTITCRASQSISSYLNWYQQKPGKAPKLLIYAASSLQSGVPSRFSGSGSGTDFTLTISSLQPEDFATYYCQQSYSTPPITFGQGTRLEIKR
notes: human IgG1 constant region; tested as CHOt supernatant; also called Sample Number 23
B11: CompAb1 heavy chain variant N101Q (antibody, human IgG1, V domains shown)
VH: B1 VH with I101Q
VL: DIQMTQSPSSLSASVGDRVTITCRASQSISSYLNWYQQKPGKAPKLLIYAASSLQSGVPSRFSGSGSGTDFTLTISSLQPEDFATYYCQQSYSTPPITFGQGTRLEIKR
notes: human IgG1 constant region; tested as CHOt supernatant; also called Sample Number 13
B12: CompAb1 heavy chain variant S103G (antibody, human IgG1, V domains shown)
VH: B1 VH with I101N, S103G
VL: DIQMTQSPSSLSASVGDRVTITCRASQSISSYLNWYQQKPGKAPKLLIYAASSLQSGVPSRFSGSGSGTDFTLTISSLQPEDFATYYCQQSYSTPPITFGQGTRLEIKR
notes: human IgG1 constant region; tested as CHOt supernatant; also called Sample Number 24
B13: CompAb1 heavy chain variant N101V (antibody, human IgG1, V domains shown)
VH: B1 VH with I101V
VL: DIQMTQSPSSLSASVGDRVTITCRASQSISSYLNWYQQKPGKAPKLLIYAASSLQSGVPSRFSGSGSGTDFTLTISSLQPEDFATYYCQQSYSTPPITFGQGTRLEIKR
notes: human IgG1 constant region; tested as CHOt supernatant; also called Sample Number 17
B14: CompAb1 heavy chain variant S103N (antibody, human IgG1, V domains shown)
VH: B1 VH with I101N, S103N
VL: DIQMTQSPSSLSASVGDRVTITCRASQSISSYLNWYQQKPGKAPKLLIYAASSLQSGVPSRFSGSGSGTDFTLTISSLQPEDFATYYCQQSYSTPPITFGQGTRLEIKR
notes: human IgG1 constant region; tested as CHOt supernatant; also called Sample Number 30
B15: CompAb1 heavy chain variant S103E (antibody, human IgG1, V domains shown)
VH: B1 VH with I101N, S103E
VL: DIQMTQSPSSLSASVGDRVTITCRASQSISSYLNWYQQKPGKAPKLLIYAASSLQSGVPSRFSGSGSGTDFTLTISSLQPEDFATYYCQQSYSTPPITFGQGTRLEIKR
notes: human IgG1 constant region; tested as CHOt supernatant; also called Sample Number 22
B16: CompAb1 heavy chain variant S103P (antibody, human IgG1, V domains shown)
VH: B1 VH with I101N, S103P
VL: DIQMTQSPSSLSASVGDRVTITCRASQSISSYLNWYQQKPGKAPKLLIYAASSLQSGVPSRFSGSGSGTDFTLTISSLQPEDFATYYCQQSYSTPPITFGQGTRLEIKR
notes: human IgG1 constant region; tested as CHOt supernatant; also called Sample Number 31
B17: CompAb1 heavy chain variant S103T (antibody, human IgG1, V domains shown)
VH: B1 VH with I101N, S103T
VL: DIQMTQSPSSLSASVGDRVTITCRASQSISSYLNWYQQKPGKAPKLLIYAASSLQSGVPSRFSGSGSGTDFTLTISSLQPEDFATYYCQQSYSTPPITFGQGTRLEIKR
notes: human IgG1 constant region; tested as CHOt supernatant; also called Sample Number 34
B18: CompAb1 heavy chain variant S103L (antibody, human IgG1, V domains shown)
VH: B1 VH with I101N, S103L
VL: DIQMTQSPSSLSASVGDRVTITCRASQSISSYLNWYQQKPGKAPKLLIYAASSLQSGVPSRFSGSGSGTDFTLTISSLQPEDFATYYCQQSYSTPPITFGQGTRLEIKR
notes: human IgG1 constant region; tested as CHOt supernatant; also called Sample Number 28
B19: CompAb1 heavy chain variant N101R (antibody, human IgG1, V domains shown)
VH: B1 VH with I101R
VL: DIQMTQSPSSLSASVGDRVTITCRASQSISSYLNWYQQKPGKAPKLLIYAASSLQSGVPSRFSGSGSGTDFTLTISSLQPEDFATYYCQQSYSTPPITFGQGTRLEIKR
notes: human IgG1 constant region; tested as CHOt supernatant; also called Sample Number 14
B20: CompAb1 heavy chain variant S103Y (antibody, human IgG1, V domains shown)
VH: B1 VH with I101N, S103Y
VL: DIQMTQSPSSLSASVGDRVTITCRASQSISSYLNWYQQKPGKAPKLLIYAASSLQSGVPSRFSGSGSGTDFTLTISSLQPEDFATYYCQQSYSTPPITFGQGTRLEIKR
notes: human IgG1 constant region; tested as CHOt supernatant; also called Sample Number 37
B21: CompAb1 heavy chain variant S103W (antibody, human IgG1, V domains shown)
VH: B1 VH with I101N, S103W
VL: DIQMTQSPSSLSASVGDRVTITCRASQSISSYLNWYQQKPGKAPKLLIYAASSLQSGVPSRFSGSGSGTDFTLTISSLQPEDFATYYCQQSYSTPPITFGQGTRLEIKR
notes: human IgG1 constant region; tested as CHOt supernatant; also called Sample Number 36
B22: CompAb1 heavy chain variant N101M (antibody, human IgG1, V domains shown)
VH: B1 VH with I101M
VL: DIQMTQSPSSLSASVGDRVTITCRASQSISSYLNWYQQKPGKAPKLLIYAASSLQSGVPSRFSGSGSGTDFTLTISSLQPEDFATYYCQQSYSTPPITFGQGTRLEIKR
notes: human IgG1 constant region; tested as CHOt supernatant; also called Sample Number 11

Numbering of substitutions follows the chain as printed.

One test deals with T1, hGITR.mFc (dimeric recombinant human …). Nature of the test: SPR Biacore 2000 25C; CHOt supernatant antibody captured on anti-human Fc; 50 nM hGITR.mFc. Here is the method:
(§1) Biacore experiments for antibodies secreted in conditioned culture medium were performed as follows. Using a Biacore 2000 instrument at 25° C., antibodies were captured for 80 seconds at a flow rate of 8 uL/min on a CM5 anti-humanFc-coupled surface. Approximately 1000-2000 RU of each antibody were captured. 100 nM hGITR.mmH (soluble monomeric hGITR, SEQ ID NO: 45) or 50 nM hGITR.mFc (dimeric Macaca fasicularis GITR, SEQ ID NO: 46) were injected over this surface for 2 minutes at a flow rate of 50 uL/min. Dissociation was measured for 2 minutes. The KD and t_{1/2} were calculated by fitting the double-referenced sensorgrams to a 1:1 binding model.
(In SPR one partner is held on a chip, and binding of the other changes the refractive index at the surface.)
Take B1: the Kd (usually the equilibrium constant for the complex coming apart) amounted to 27.5 nM and the t1/2 stood at 0.72 min.
Taken in the same sequence, the figures for B2 were 6.68 nM and 4.63 min.
Taken in the same sequence, the figures for B3 were 1.04 nM and 27.3 min.
Taken in the same sequence, the figures for B4 were 0.529 nM and 50.3 min.
Turning to B5, the Kd was 26.9 nM and the t1/2 came out at 0.99 min.
For B6, the dissociation constant (Kd) came out at 3.82 nM and the t1/2 was 7.8 min.
For B7, in that order: 0.595 nM and 65 min.
For B8, in that order: 6.51 nM and 4.41 min.
Taken in the same sequence, the figures for B9 were 0.255 nM and 124 min.
As to B10, the Kd is 2.33 nM and the t1/2 was 12.8 min.
Consider B11, for which the Kd was determined as 9.98 nM and the t1/2 turned out to be 3.86 min.
For B12, in that order: 5.56 nM and 7.4 min.
Taken in the same sequence, the figures for B13 were 23.9 nM and 0.98 min.
For B14, in that order: 1.01 nM and 41.4 min.
Consider B15, for which the Kd was 0.742 nM and the t1/2 was found to be 42.4 min.
For B16, the Kd is 7.79 nM and the t1/2 amounted to 2.92 min.
Taken in the same sequence, the figures for B17 were 0.127 nM and 249 min.
As to B18, the dissociation constant (Kd) came to 15.9 nM and the t1/2 was determined as 1.66 min.
For B19, in that order: 29.4 nM and 0.86 min.
Taken in the same sequence, the figures for B20 were 3.03 nM and 10.4 min.
For B21, in that order: 1.61 nM and 27 min.
B22: the Kd is 24 nM and the t1/2 was determined as 0.82 min.

A further test addresses T2, hGITR.mmH (soluble monomeric …). As to the kind of experiment: SPR Biacore 2000 25C; CHOt supernatant antibody captured on anti-human Fc; 100 nM hGITR.mmH. As for the experimental part: as §1
Turning to B1, the Kd stood at 329 nM and the t1/2 is 1.32 min.
For B2, the Kd came to 12.6 nM and the t1/2 was determined as 16.4 min.
Taken in the same sequence, the figures for B3 were 4.62 nM and 15.2 min.
As for B4, the dissociation constant Kd is 108 nM and the t1/2 is 0.83 min.
Taken in the same sequence, the figures for B5 were 17 nM and 4.91 min.
For B6, in that order: 7.39 nM and 14.7 min.
For B7, in that order: 77.1 nM and 1.01 min.
In the case of B8, the Kd is 10.1 nM and the t1/2 was 11.5 min.
As to B9, the Kd turned out to be 96.8 nM and the t1/2 was 0.92 min.
For B10, in that order: 7.35 nM and 13.6 min.
Regarding B11, the Kd stood at 3.41 nM and the t1/2 stood at 16.7 min.
Taken in the same sequence, the figures for B13 were 29.1 nM and 3.46 min.
For the molecule B14, the Kd was 119 nM and the t1/2 was determined as 0.95 min.
As for B15, the dissociation constant (Kd) came out at 119 nM and the t1/2 is 0.76 min.
For B16, in that order: 28.4 nM and 11.2 min.
For B17, in that order: 29.6 nM and 3.88 min.
Taken in the same sequence, the figures for B18 were 85.2 nM and 4.59 min.
As for B20, the Kd worked out at 4.39 nM and the t1/2 turned out to be 26.6 min.
In the case of B21, the Kd turned out to be 116 nM and the t1/2 amounted to 0.94 min.
Taken in the same sequence, the figures for B22 were 152 nM and 1.93 min.
